# Laboratory results: paper PMC9911399, “Two distinct binding modes provide the RNA-binding protein RbFox with extraordinary sequence specificity”
# Positions count from the first letter of the chain named.
# T1: RbFoxmut (RRM with four substitutions) (UniProt Q9NWB1)
# T1 sequence: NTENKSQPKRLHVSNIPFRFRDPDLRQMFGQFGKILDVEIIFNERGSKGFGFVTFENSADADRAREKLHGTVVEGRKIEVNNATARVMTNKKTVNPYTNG
# T2: RBFOX1 RRM (Homo sapiens, UniProt Q9NWB1 109-208)
# T2 sequence: T1 sequence
# T3: RBFOX1 RRM RbFoxmut (Fox-RRM*) (Homo sapiens, UniProt Q9NWB1 109-208, R118D;E147R;N151S;E152T)
# T3 sequence: T1 sequence with R10D, E39R, N43S, E44T
# T4: RbFox RRM (wt) (UniProt Q9NWB1 109-208)
# T4 sequence: T1 sequence
# B1: UGAAUGU (ssRNA)
# RNA: UGAAUGU
# B2: UGCAUGU (cognate) (ssRNA)
# RNA: UGCAUGU
# B3: UGCAUGU (ssRNA)
# RNA: UGCAUGU
# Columns and labels:
# [1] = target: T1, RbFoxmut (RRM with four substitutions); assay: EMSA; conditions: EMSA: 10 mM Tris pH 7.5, 150 mM NaCl, 3.4 mM EDTA, 0.001% NP-40, 30 C, 10 min, 1 nM RNA, 8% native PAGE; NMR: 10 mM sodium phosphate pH 6.0, 30 mM NaCl, 298 K …
# RBFOX1 RRM = target: T2, RBFOX1 RRM; assay: EMSA; 10 mM Tris pH 7.5, 150 mM NaCl, 3.4 mM EDTA, 0.001% NP-40, 30 C; conditions: tags: His6 N-terminal (pET28a); label: 5' 32P
# [2] = target: T3, RBFOX1 RRM RbFoxmut (Fox-RRM*); assay: as above; conditions: tags: His6 N-terminal (pET28a); label: 5' 32P
# RbFox RRM (wt) = target: T4, RbFox RRM (wt); assay: EMSA; EMSA: 10 mM Tris pH 7.5, 150 mM NaCl, 3.4 mM EDTA, 0.001% NP-40, 30 C, 10 min, 1 nM RNA, 8% native PAGE; NMR: 10 mM sodium phosphate pH 6.0, 30 mM NaCl, 298 K; conditions: protein: recombinant; tags: His6 (HisTrap) for EMSA; His6-GST removed by TEV for NMR; label: 5' 32P (EMSA); unlabeled (NMR)
Molecule,K half [1] [nM],apparent K (half saturation) [2] [nM],further results
UACAUGU,,,"binding signal [1]: -5.01 ln(KA,rel)"
UGCAUGU [UGCAUGU (cognate)],14.3,,
UGAAUGU,35.3,,
B1,,35.3 ± 11.8,apparent K (half saturation) (RBFOX1 RRM): > 17 µM
B2,,,apparent K (half saturation) (RbFox RRM (wt)): 1.6 ± 0.3 nM
B3,,14.3 ± 2.5,
